The supplement of paper PMC9233669
Fewer inactive variants are shown than the library holds.

How the values were obtained:
[1] = test system: biotinyl-Phe-oxazolone; assay: self-aminoacylation, catalytic enhancement (BFO) (fold over background); higher = more active; k-Seq, kA / k0A0; sequences stand for … in GGGAAUGGAUCCACAUCUACGAAUUC…UUCACUGCAGACUUGACGAAGCUG
Summary of the method: (§1)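 Mutagenized RNA pools (0.43 μM; 21-nt variable region) were treated with 2–1250 μM of each biotinyl-aminoacyl-oxazolone. Conditions were 50 μL HEPES/NaCl/KCl/MgCl2/CaCl2 buffer, 5% acetonitrile, pH 6.9–7.0, room temperature, 90 minutes. Catalytic enhancement, the median kA relative to the uncatalyzed rate, was derived from streptavidin capture, qPCR and Illumina sequencing.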

[2] = test system: biotinyl-Ile-oxazolone; assay: self-aminoacylation, catalytic enhancement (BIO) (fold over background); higher = more active; k-Seq, kA / k0A0; sequences stand for … in GGGAAUGGAUCCACAUCUACGAAUUC…UUCACUGCAGACUUGACGAAGCUG
Summary of the method: as §1

[3] = test system: biotinyl-Met-oxazolone; assay: self-aminoacylation, catalytic enhancement (BMO) (fold over background); higher = more active; k-Seq, kA / k0A0; sequences stand for … in GGGAAUGGAUCCACAUCUACGAAUUC…UUCACUGCAGACUUGACGAAGCUG
Summary of the method: as §1

[4] = test system: biotinyl-Val-oxazolone; assay: self-aminoacylation, catalytic enhancement (BVO) (fold over background); higher = more active; k-Seq, kA / k0A0; sequences stand for … in GGGAAUGGAUCCACAUCUACGAAUUC…UUCACUGCAGACUUGACGAAGCUG
Summary of the method: as §1

[5] = test system: biotinyl-Leu-oxazolone; assay: self-aminoacylation, catalytic enhancement (BLO) (fold over background); higher = more active; k-Seq, kA / k0A0; sequences stand for … in GGGAAUGGAUCCACAUCUACGAAUUC…UUCACUGCAGACUUGACGAAGCUG
Summary of the method: as §1

[6] = test system: biotinyl-Trp-oxazolone; assay: self-aminoacylation, catalytic enhancement (BWO) (fold over background); higher = more active; k-Seq, kA / k0A0; sequences stand for … in GGGAAUGGAUCCACAUCUACGAAUUC…UUCACUGCAGACUUGACGAAGCUG
Summary of the method: as §1

| Sequence | self-aminoacylation [1] | self-aminoacylation [2] | self-aminoacylation [3] | self-aminoacylation [4] | self-aminoacylation [5] | self-aminoacylation [6] |
| --- | --- | --- | --- | --- | --- | --- |
| CUACUUCAAAGUAUCGGUCUG [Fam1A.1 aminoacylation ribozyme variant] | 1.44 | 0.979 | 0.824 | 0.975 | 0.941 | 0.979 |
| CUACUUCAAAUAAUCGAUCUG [Fam1A.1 aminoacylation ribozyme variant] | 1.94 | 0.669 | 0.534 | 0.592 | 0.495 | 0.839 |
| CUACUUCAAAUAAUCGGUCCG [Fam1A.1 aminoacylation ribozyme variant] | 2.68 | 0.585 | 0.599 | 0.657 | 0.654 | 1.76 |
| CUACUUCAACCAAUAGGUCUG [Fam1A.1 aminoacylation ribozyme variant] | 1.05 | 0.947 | 0.703 | 0.777 | 0.743 | 0.753 |
| CUACUUCAACCAAUCGGGCUG [Fam1A.1 aminoacylation ribozyme variant] | 7.63 | 1.71 | 1.24 | 1.22 | 1.68 | 6.74 |
| CUACUUCAACCAAUCGGUCUC [Fam1A.1 aminoacylation ribozyme variant] | 23.8 | 0.904 | 0.76 | 0.98 | 1.19 | 12.9 |
| CUACUUCAACCAAUCGGUCUU [Fam1A.1 aminoacylation ribozyme variant] | 16 | 1.02 | 0.975 | 0.934 | 1.32 | 8.43 |
| CUACUUCAAGCAAUCGGUCUU [Fam1A.1 aminoacylation ribozyme variant] | 6.92 | 1.07 | 0.87 | 1.06 | 0.97 | 4.63 |
| CUACUUCAAGCACUCGGUCUG [Fam1A.1 aminoacylation ribozyme variant] | 2.08 | 1.23 | 0.971 | 1.3 | 1.17 | 1.28 |
| CUACUUCAAGCUAUCGGUCUG [Fam1A.1 aminoacylation ribozyme variant] | 0.617 | 0.839 | 0.942 | 0.892 | 0.689 | 0.43 |
| CUACUUCAAUCAACCGGUCUG [Fam1A.1 aminoacylation ribozyme variant] | 0.9 | 0.925 | 0.525 | 0.806 | 0.729 | 0.663 |
| CUACUUCAAUCAUUCGGUCUG [Fam1A.1 aminoacylation ribozyme variant] | 0.652 | 1.1 | 0.805 | 0.992 | 0.896 | 1.13 |
| CUACUUCACAAAAUCGGUCUG [Fam1A.1 aminoacylation ribozyme variant] | 0.608 | 0.985 | 0.863 | 0.831 | 0.823 | 0.739 |
| CUACUUCACACAACCGGUCUG [Fam1A.1 aminoacylation ribozyme variant] | 1.07 | 0.858 | 1.2 | 1.01 | 0.892 | 0.778 |
| CUACUUCACACAAUCGAUCUG [Fam1A.1 aminoacylation ribozyme variant] | 0.726 | 0.888 | 0.686 | 0.677 | 0.784 | 0.691 |
| CUACUUCACAGAAUCGGUCUG [Fam1A.1 aminoacylation ribozyme variant] | 1.11 | 1.03 | 1.05 | 1.02 | 1.1 | 0.917 |
| CUACUUCAGACAAUCCGUCUG [Fam1A.1 aminoacylation ribozyme variant] | 1.86 | 0.902 | 0.675 | 0.826 | 0.963 | 1.23 |
| CUACUUCAGACAAUCGGUCCG [Fam1A.1 aminoacylation ribozyme variant] | 0.81 | 0.811 | 1 | 0.695 | 1.01 | 1.38 |
| CUACUUCAGACAAUCGGUCUU [Fam1A.1 aminoacylation ribozyme variant] | 1.11 | 0.967 | 0.904 | 0.961 | 0.919 | 0.663 |
| CUACUUCAGACGAUCGGUCUG [Fam1A.1 aminoacylation ribozyme variant] | 0.484 | 0.727 | 1.24 | 1.01 | 0.954 | 0.788 |
| CUACUUCAUACAACCGGUCUG [Fam1A.1 aminoacylation ribozyme variant] | 0.504 | 0.925 | 0.621 | 0.84 | 0.751 | 0.415 |
| CUACUUCCAACAAUCGGGCUG [Fam1A.1 aminoacylation ribozyme variant] | 0.889 | 1.59 | 2.11 | 1.27 | 1.28 | 0.982 |
| CUACUUCCAACAAUGGGUCUG [Fam1A.1 aminoacylation ribozyme variant] | 0.635 | 0.951 | 0.932 | 0.835 | 0.795 | 0.789 |
| CUACUUCCAACAAUUGGUCUG [Fam1A.1 aminoacylation ribozyme variant] | 0.55 | 0.817 | 0.718 | 0.839 | 0.776 | 0.536 |
| CUACUUCCACCAAUCGGUCUG [Fam1A.1 aminoacylation ribozyme variant] | 0.84 | 0.912 | 0.684 | 0.877 | 0.793 | 0.387 |
